The source of these data is publication PMC10023573.

The test system of the data set is S9.6 anti-DNA:RNA hybrid monoclonal antibody, gold conjugate. Put plainly: immuno electron microscopy. Conditions: 10 ug/mL S9.6-gold, psoralen cross-linked, co-transcriptional R-loop (RNA hybrid), S9.6-gold 10 ug/mL with 80-100 ng pFC53, 1 h at 37 C, then 0.2% glutaraldehyde 15 min at 37 C, labeling buffer, salt and pH not given.

As for “pFC53 circular, T3-transcribed, R-loop in mAirn”, the binding signal (% of molecules labeled) came out at 50.

For “pFC53 linear, T3-transcribed, R-loop in mAirn”, for the setting “labels cluster in Airn region”, the binding signal (% of molecules labeled) is 50.
